Reference: US20250145711A1 (Janssen / Centocor, published 2025)
One block for each binder: values may come before it.

Key:
[1] = target: T1, TRCW5 antigen (CD3δε-Fc-Avi) (biotinylated (site not stated)); assay: ELISA, E. coli scFv on biotinylated TRCW5
T1 construct: also called recombinant CD3
Experimental: Briefly, DNA was transformed into an E. coli expression vector to generate scFv molecules having a C-terminal HA-tag, and cells were plated on 2×YT/Carb/2% Glucose grown overnight at 37 C. Colonies were picked and transferred 50 ul of overnight growth cultures to new plates containing 500 ul of 2×YT/Carb/0.1% Glucose, grown for 6-7 hr, and combined with 50 ul 2×YT medium containing 1×carbenicillin & 12×IPTG. Cultures were incubated with shaking ˜600 RPM 30° C. overnight. Streptavidin coated plates were bound with 50 μL of biotinylated TRCW5 antigen (CD3δε-Fc-Avi, SEQ ID NO: 39) at the concentrations indicated in the ELISA graph for 45 min at room temperature with shaking (FIG. 1, FIG. 3, FIG. 4) followed by washing 3× with 1×TBST. Plates were blocked with 200 ul 3% Milk in 1×TBST for ˜45 mins at room temperature followed by washing 3× with 1×TBST. E. coli cultures were harvested by centrifugation at […] for 10 mins 4° C. and 50 μL of supernatant was transferred into CD3-coated plates followed by incubation at 4 C for 45 min. Plates were washed 3× with 1×TBST. Bound scFv was detected with Chicken Polyclonal Anti-HA-HRP (ab1190) [1:1000] for ˜45 mins RT and luminescence detected with chemi-luminescent substrate.

[2] = target: T2, human PSMA on prostate cancer cell lines (22RV1, C4-2B) (human, UniProt Q04609 1-750); assay: flow cytometry on 22RV1 cells
T2 construct: also called PSMA-expressing cell lines
T2 sequence (Q04609 whole entry): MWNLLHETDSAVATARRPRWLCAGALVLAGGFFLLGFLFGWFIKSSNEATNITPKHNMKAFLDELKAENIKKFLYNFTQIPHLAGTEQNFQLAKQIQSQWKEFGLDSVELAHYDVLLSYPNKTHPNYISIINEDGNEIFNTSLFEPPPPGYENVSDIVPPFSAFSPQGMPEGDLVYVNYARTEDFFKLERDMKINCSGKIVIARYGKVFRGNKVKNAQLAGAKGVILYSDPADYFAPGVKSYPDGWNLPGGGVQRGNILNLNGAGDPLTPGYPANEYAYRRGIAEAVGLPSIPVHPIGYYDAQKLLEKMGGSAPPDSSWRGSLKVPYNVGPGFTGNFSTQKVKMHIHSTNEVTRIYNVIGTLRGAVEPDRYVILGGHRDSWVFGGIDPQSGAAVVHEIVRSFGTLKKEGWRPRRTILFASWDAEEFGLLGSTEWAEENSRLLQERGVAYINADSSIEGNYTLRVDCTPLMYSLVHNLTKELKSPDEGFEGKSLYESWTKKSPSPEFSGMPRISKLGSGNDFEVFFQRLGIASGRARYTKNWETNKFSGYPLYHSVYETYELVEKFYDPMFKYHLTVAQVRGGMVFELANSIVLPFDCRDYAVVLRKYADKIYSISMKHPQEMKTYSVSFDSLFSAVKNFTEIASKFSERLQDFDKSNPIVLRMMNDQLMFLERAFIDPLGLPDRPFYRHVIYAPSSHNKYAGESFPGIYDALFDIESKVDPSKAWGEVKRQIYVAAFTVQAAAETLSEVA
Experimental: (§1) 22RV1 and C4-2B cells were plated at 50,000 cells per well in 50 μl of assay medium (RPMI, 10% HI FBS) in V bottom plates. Serial dilutions of antibodies were prepared in assay medium with 50 μl of antibody dilutions added to the plates containing cells. The plates were incubated for 60 min at 37° C. at which time 100 μl of staining buffer (Becton Dickinson Cat #554657) was added to all wells of each plate. The plates were centrifuged at 300×G for 5 minutes and the medium was removed from the wells. 200 μl of staining buffer was added to all wells of each plate. The plates were centrifuged at 300× G for 5 minutes and the medium was removed from the wells. 50 μl of 2 μg/ml AlexaFluor647-labeled goat anti-human Fc was added to all wells of the plates and the plates were incubated for 30 minutes at 4° C. 150 μl of staining buffer was added to all wells of each plate. The plates were centrifuged at 300× G for 5 minutes and the medium was removed from the wells.

[3] = target: T2, human PSMA on prostate cancer cell …; assay: flow cytometry on C4-2B cells
Experimental: as §1

recombinant human PSMA = target: T3, recombinant human PSMA (human, UniProt Q04609 44-750); assay: SPR (Biacore 8K), antibody captured on anti-Fc, PSMA in solution
T3 construct: also called hu PSMA; prostate-specific membrane antigen
T3 sequence (Q04609 44-750 limits assumed): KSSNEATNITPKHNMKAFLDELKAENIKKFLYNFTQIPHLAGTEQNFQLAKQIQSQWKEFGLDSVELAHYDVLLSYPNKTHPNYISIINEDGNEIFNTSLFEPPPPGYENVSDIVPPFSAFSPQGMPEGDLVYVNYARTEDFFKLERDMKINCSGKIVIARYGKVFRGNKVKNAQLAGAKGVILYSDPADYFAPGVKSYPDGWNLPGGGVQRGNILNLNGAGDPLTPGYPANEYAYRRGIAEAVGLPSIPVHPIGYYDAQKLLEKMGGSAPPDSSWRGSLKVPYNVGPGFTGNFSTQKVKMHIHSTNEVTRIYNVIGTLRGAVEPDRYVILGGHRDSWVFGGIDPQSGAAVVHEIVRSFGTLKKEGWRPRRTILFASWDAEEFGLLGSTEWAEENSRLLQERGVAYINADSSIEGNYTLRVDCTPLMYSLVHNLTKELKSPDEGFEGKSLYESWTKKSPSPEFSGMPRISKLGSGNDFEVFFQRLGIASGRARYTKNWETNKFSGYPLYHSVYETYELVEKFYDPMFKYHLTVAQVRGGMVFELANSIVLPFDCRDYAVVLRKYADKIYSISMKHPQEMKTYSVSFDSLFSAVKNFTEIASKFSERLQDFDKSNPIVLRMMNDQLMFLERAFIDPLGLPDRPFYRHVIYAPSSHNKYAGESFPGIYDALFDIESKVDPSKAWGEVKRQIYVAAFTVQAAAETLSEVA
Experimental: The binding affinity of anti-PSMA to the recombinant human, cynomolgus or mouse PSMA was determined by surface plasmon resonance (SPR) using a Biacore 8K instrument\. […] The association and dissociation were monitored for 3 and 15 minutes, respectively, using a flow rate of 50 μL/min. Raw binding data was referenced by subtracting the analyte binding signals from blanks and analyzed using a 1:1 Langmuir binding model using the Biacore Insight evaluation software to obtain the kinetics which were used to calculate the binding affinity. The anti-PSMA were captured using an anti-human Fc antibody and the antigens were injected in solution.

[4] = target: T1, TRCW5 antigen (CD3δε-Fc-Avi); assay: ELISA after heat

T1 sequence (chain, as listed by the source mutant limits assumed): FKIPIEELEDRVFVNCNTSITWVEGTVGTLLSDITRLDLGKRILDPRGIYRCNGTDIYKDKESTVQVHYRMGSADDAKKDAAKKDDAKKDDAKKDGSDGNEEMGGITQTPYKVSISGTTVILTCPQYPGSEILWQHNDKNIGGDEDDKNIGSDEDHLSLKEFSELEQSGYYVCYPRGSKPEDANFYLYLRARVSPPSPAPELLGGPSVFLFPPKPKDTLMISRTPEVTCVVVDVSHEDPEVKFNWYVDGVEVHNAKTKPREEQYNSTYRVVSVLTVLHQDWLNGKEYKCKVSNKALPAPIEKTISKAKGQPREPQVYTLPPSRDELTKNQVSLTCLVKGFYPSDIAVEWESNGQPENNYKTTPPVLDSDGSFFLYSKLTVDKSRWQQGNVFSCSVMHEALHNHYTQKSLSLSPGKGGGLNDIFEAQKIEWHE

EC50 [1]: 1.14 nM
B1: CD3B1131 (scFv)
scFv: EVQLVQSGAEVKKPGESLRISCKASGYTFTRSTMHWVRQMPGKGLEWMGYINPSSAYTNYNPSFQGHVTLSADKSISTAYLQWSSLKASDTAMYYCARPQVHYDYNGFPYWGQGTLVTVSSGGSEGKSSGSGSESKSTGGSDIQLTQSPSSLSASVGDRVTITCSASSSVSYMNWYQQKPGTSPKRLIYDSSKLASGVPSRFSGSGSGTDYTLTISSLQPEDFATYYCQQWSRNPPTFGGGTKVEIK
notes: also called CD381131

EC50 [1]: ~1.1 nM
B2: CD3B1132 (scFv)
scFv: EVQLVQSGAEVKKPGESLRISCKASGYTFTRSTMHWVRQMPGKGLEWMGYINPSSAYTNYNPSFQGHVTLSADKSISTAYLQWSSLKASDTAMYYCARPQVHYDYNGFPYWGQGTLVTVSSGGSEGKSSGSGSESKSTGGSEIVLTQSPATLSLSPGERATLSCSASSSVSYMNWYQQKPGTSPRRLIYDSSKLASGIPARFSGSGSGRDYTLTISSLEPEDFAVYYCQQWSRNPPTFGGGTKVEIK

EC50 [1]: 1.04 nM
B3: CD3B1135 (scFv)
scFv: EIVLTQSPATLSLSPGERATLSCSASSSVSYMNWYQQKPGTSPRRLIYDSSKLASGIPARFSGSGSGRDYTLTISSLEPEDFAVYYCQQWSRNPPTFGGGTKVEIKGGSEGKSSGSGSESKSTGGSQVQLVQSGAEVKKPGSSVKVSCKASGYTFTRSTMHWVRQAPGQGLEWMGYINPSSAYTNYNQKFQGRVTLTADKSTSTAYMELSSLRSEDTAVYYCARPQVHYDYNGFPYWGQGTLVTVSS

EC50 [2]: 4.96 nM | EC50 [3]: 11 nM | Kd (recombinant human PSMA): ≤ 0.0873 nM
B4: PS3B934 (bispecific antibody, human IgG1, kappa, lambda, L234A L235A)
heavy 1: EVQLVESGGGLVKPGGSLRLSCAASGFTFSRYNMNWVRQAPGKGLEWVSSISTSSNYIYYADSVKGRFTFSRDNAKNSLDLQMSGLRAEDTAIYYCTRGWGPFDYWGQGTLVTVSSASTKGPSVFPLAPSSKSTSGGTAALGCLVKDYFPEPVTVSWNSGALTSGVHTFPAVLQSSGLYSLSSVVTVPSSSLGTQTYICNVNHKPSNTKVDKKVEPKSCDKTHTCPPCPAPEAAGGPSVFLFPPKPKDTLMISRTPEVTCVVVSVSHEDPEVKFNWYVDGVEVHNAKTKPREEQYNSTYRVVSVLTVLHQDWLNGKEYKCKVSNKALPAPIEKTISKAKGQPREPQVYTLPPSREEMTKNQVSLTCLVKGFYPSDIAVEWESNGQPENNYKTTPPVLDSDGSFLLYSKLTVDKSRWQQGNVFSCSVMHEALHNHYTQKSLSLSP
light 1: DIQMTQSPSSLSASVGDRVTITCRARQSIGTAIHWYQQKPGKAPKLLIKYASESISGVPSRFSGSGSGTDFTLTISSLQPEDFATYYCQQSGSWPYTFGQGTKLEIKRTVAAPSVFIFPPSDEQLKSGTASVVCLLNNFYPREAKVQWKVDNALQSGNSQESVTEQDSKDSTYSLSSTLTLSKADYEKHKVYACEVTHQGLSSPVTKSFNRGEC
heavy 2: EVQLVESGGGLVQPGGSLRLSCAASGFTFSSYAMSWVRQAPGKGLEWVSAISGGIGSTYYADSVKGRFTISRDNSKNTLWLQMNSLRAEDTAVYYCAKDGVGATPYYFDYWGQGTLVTVSSASTKGPSVFPLAPSSKSTSGGTAALGCLVKDYFPEPVTVSWNSGALTSGVHTFPAVLQSSGLYSLSSVVTVPSSSLGTQTYICNVNHKPSNTKVDKKVEPKSCDKTHTCPPCPAPEAAGGPSVFLFPPKPKDTLMISRTPEVTCVVVSVSHEDPEVKFNWYVDGVEVHNAKTKPREEQYNSTYRVVSVLTVLHQDWLNGKEYKCKVSNKALPAPIEKTISKAKGQPREPQVYTLPPSREEMTKNQVSLTCLVKGFYPSDIAVEWESNGQPENNYKTTPPVLDSDGSFFLYSRLTVDKSRWQQGNVFSCSVMHEALHNHYTQKSLSLSPG
light 2: QSVLTQPPSVSAAPGQKVTISCSGSSSNIGINYVSWYQQLPGTAPKLLIYDNNKRPSGIPDRFSGSKSGTSATLGITGLQTGDEADYYCGTWDSSLSAVVFGGGTKLTVLGQPKAAPSVTLFPPSSEELQANKATLVCLISDFYPGAVTVAWKADSSPVKAGVETTTPSKQSNNKYAASSYLSLTPEQWKSHRSYSCQVTHEGSTVEKTVAPTECS
notes: FAB-A: CD3B2183 (CD3W245); FAB-B: PSMB896

EC50 [2]: 39.5 nM | EC50 [3]: 8.22 nM | Kd (recombinant human PSMA): 0.454 nM
B5: PS3B935 (bispecific antibody, human IgG1, kappa, lambda, L234A L235A)
heavy 1: EVQLVESGGGLVKPGGSLRLSCAASGFTFSRYNMNWVRQAPGKGLEWVSSISTSSNYIYYADSVKGRFTFSRDNAKNSLDLQMSGLRAEDTAIYYCTRGWGPFDYWGQGTLVTVSSASTKGPSVFPLAPSSKSTSGGTAALGCLVKDYFPEPVTVSWNSGALTSGVHTFPAVLQSSGLYSLSSVVTVPSSSLGTQTYICNVNHKPSNTKVDKKVEPKSCDKTHTCPPCPAPEAAGGPSVFLFPPKPKDTLMISRTPEVTCVVVSVSHEDPEVKFNWYVDGVEVHNAKTKPREEQYNSTYRVVSVLTVLHQDWLNGKEYKCKVSNKALPAPIEKTISKAKGQPREPQVYTLPPSREEMTKNQVSLTCLVKGFYPSDIAVEWESNGQPENNYKTTPPVLDSDGSFLLYSKLTVDKSRWQQGNVFSCSVMHEALHNHYTQKSLSLSP
light 1: DIQMTQSPSSLSASVGDRVTITCRARQSIGTAIHWYQQKPGKAPKLLIKYASESISGVPSRFSGSGSGTDFTLTISSLQPEDFATYYCQQSGSWPYTFGQGTKLEIKRTVAAPSVFIFPPSDEQLKSGTASVVCLLNNFYPREAKVQWKVDNALQSGNSQESVTEQDSKDSTYSLSSTLTLSKADYEKHKVYACEVTHQGLSSPVTKSFNRGEC
heavy 2: EVQLVESGGGLVQPGGSLRLSCAASGFTFSSYAMSWVRQAPGKGLEWVSAISGGSGSTYYADSVKGRFTISRDNSKNTLYLQMNSLRAEDSAVYYCAKDGVGATPYYFDYWGQGTLVTVSSASTKGPSVFPLAPSSKSTSGGTAALGCLVKDYFPEPVTVSWNSGALTSGVHTFPAVLQSSGLYSLSSVVTVPSSSLGTQTYICNVNHKPSNTKVDKKVEPKSCDKTHTCPPCPAPEAAGGPSVFLFPPKPKDTLMISRTPEVTCVVVSVSHEDPEVKFNWYVDGVEVHNAKTKPREEQYNSTYRVVSVLTVLHQDWLNGKEYKCKVSNKALPAPIEKTISKAKGQPREPQVYTLPPSREEMTKNQVSLTCLVKGFYPSDIAVEWESNGQPENNYKTTPPVLDSDGSFFLYSRLTVDKSRWQQGNVFSCSVMHEALHNHYTQKSLSLSPG
light 2: QSVLTQPPSVSAAPGQKVTISCSGSSSNIGINYVSWYQQLPGTAPKLLIYDNNKRPSGIPDRFSGSKSGTSATLGITGLQTGDEADYYCGTWDSSLSAVVFGGGTKLTVLGQPKAAPSVTLFPPSSEELQANKATLVCLISDFYPGAVTVAWKADSSPVKAGVETTTPSKQSNNKYAASSYLSLTPEQWKSHRSYSCQVTHEGSTVEKTVAPTECS
notes: FAB-A: CD3B2183 (CD3W245); FAB-B: PSMB898

EC50 [1]: ~0.0063 nM
B6: CD3B1134 (scFv)
scFv: DIQLTQSPSSLSASVGDRVTITCSASSSVSYMNWYQQKPGTSPKRLIYDSSKLASGVPSRFSGSGSGTDYTLTISSLQPEDFATYYCQQWSRNPPTFGGGTKVEIKGGSEGKSSGSGSESKSTGGSEVQLVQSGAEVKKPGESLRISCKASGYTFTRSTMHWVRQMPGKGLEWMGYINPSSAYTNYNPSFQGHVTLSADKSISTAYLQWSSLKASDTAMYYCARPQVHYDYNGFPYWGQGTLVTVSS

EC50 [1]: 0.958 nM
B7: CD3B1133 (scFv)
scFv: DIQLTQSPSSLSASVGDRVTITCSASSSVSYMNWYQQKPGTSPKRLIYDSSKLASGVPSRFSGSGSGTDYTLTISSLQPEDFATYYCQQWSRNPPTFGGGTKVEIKGGSEGKSSGSGSESKSTGGSQVQLVQSGAEVKKPGSSVKVSCKASGYTFTRSTMHWVRQAPGQGLEWMGYINPSSAYTNYNQKFQGRVTLTADKSTSTAYMELSSLRSEDTAVYYCARPQVHYDYNGFPYWGQGTLVTVSS

% Retained 55° C. [4]: 90% | % Retained 60° C. [4]: 11% | % Retained 65° C. [4]: 1% | EC50 [1]: 0.747 nM
B8: CD3B1130 (scFv)
scFv: QVQLVQSGAEVKKPGSSVKVSCKASGYTFTRSTMHWVRQAPGQGLEWMGYINPSSAYTNYNQKFQGRVTLTADKSTSTAYMELSSLRSEDTAVYYCARPQVHYDYNGFPYWGQGTLVTVSSGGSEGKSSGSGSESKSTGGSEIVLTQSPATLSLSPGERATLSCSASSSVSYMNWYQQKPGTSPRRLIYDSSKLASGIPARFSGSGSGRDYTLTISSLEPEDFAVYYCQQWSRNPPTFGGGTKVEIK
notes: also called IGHV1-69*02-IGHJ1-01 / IGKV3-11*02-IGKJ4-01 grafted construct, HL

EC50 [1]: 0.712 nM
B9: CD3B1129 (scFv)
scFv: QVQLVQSGAEVKKPGSSVKVSCKASGYTFTRSTMHWVRQAPGQGLEWMGYINPSSAYTNYNQKFQGRVTLTADKSTSTAYMELSSLRSEDTAVYYCARPQVHYDYNGFPYWGQGTLVTVSSGGSEGKSSGSGSESKSTGGSDIQLTQSPSSLSASVGDRVTITCSASSSVSYMNWYQQKPGTSPKRLIYDSSKLASGVPSRFSGSGSGTDYTLTISSLQPEDFATYYCQQWSRNPPTFGGGTKVEIK
